Test results reported in FireProtDB (doi:10.1110/ps.38602).

Conditions: pH 5.5, CD, NaOAc 20 mM, KCl 50 mM, reversible: yes, whole UniProt chain shown; for denaturant m value / unfolding free energy: 25 °C; for Tm / heat capacity change of unfolding: Thermal
[1] = Escherichia coli (strain K12), GdnHCl
[2] = Escherichia coli (strain K12), Urea
[3] = Thermus thermophilus (strain ATCC 27634 / DSM 579 / HB8), GdnHCl
[4] = Thermus thermophilus (strain ATCC 27634 / DSM 579 / HB8)

B1: Ribonuclease HI wild type, P0A7Y4 (protein)
chain: MLKQVEIFTDGSCLGNPGPGGYGAILRYRGREKTFSAGYTRTTNNRMELMAAIVALEALKEHCEVILSTDSQYVRQGITQWIHNWKKRGWKTADKKPVKNVDLWQRLDAALGQHQIKWEWVKGHAGHPENERCDELARAAAMNPTLEDTGYQVEV
Q: For B1, which denaturant m value [1] is on record?
A: The denaturant m value was 4.9 kcal/mol/M.

Q: And the unfolding free energy [1]?
A: The unfolding free energy was 7.6 kcal/mol.

Q: And the denaturant m value [2]?
A: The denaturant m value was 2.1 kcal/mol/M.

Q: What about the unfolding free energy [2] of the same protein?
A: The unfolding free energy was 9.7 kcal/mol.

Q: What about the Tm (Escherichia coli (strain K12)) of the same protein?
A: Its Tm is 66 °C.

Q: What about the “heat capacity change of unfolding” value (Escherichia coli (strain K12)) of the same protein?
A: Its value is 2.7 kcal/mol/K.

B2: Ribonuclease H wild type, P29253 (protein)
chain: MNPSPRKRVALFTDGACLGNPGPGGWAALLRFHAHEKLLSGGEACTTNNRMELKAAIEGLKALKEPCEVDLYTDSHYLKKAFTEGWLEGWRKRGWRTAEGKPVKNRDLWEALLLAMAPHRVRFHFVKGHTGHPENERVDREARRQAQSQAKTPCPPRAPTLFHEEA
Q: What does the source list for B2?
A: denaturant m value [3]: 4.4 kcal/mol/M; unfolding free energy [3]: 12.2 kcal/mol; Tm [4]: 86 °C; heat capacity change of unfolding [4]: 1.8 kcal/mol/K
